The text below walks through data of patent US20260242721A1, “A SYNTHETIC CELLULAR ADVANCED SIGNAL ADAPTER (SCASA) SYSTEM” (Danmarks Tekniske Universitet, priority 2023, published 2026).

Data set [1] addresses Schizosaccharomyces pombe P-factor pheromone receptor (Mam2) (Schizosaccharomyces pombe) (UniProt Q00619). The data set is described as follows: cell-based or functional assay.
For data set [2], the target named is CD19 on the human CD19+ NALM6 B cell precursor leukemia cell line (human) (UniProt P15391). The data set is described as follows: cell-based or functional assay.
Data set [3] has as its target Aga2-HA-PAS40-(G4S)3-CD19-myc yeast surface display fusion protein (CD19.1 ECD displayed on SCASA yeast aAPCs) (synthetic construct, CD19 part modified from human). The data set is described as follows: cell-based or functional assay.
In data set [4] the test system is pheromone response pathway (PRP). As for the experimental part:
To investigate the dose-response features of the selected promoters PMFA2, PFUS1, PAGA2, PFIG.1, PMFA1, PYCL076W, PHPF1, PIME4, PCSS1, PTDH3, PPGK1 and P6XLexOLEU2 upon GPCR stimulation the strains were pre-grown in SC (24 hrs.), whereafter, for each replicate, cells were transferred to 200 μL volumes comprising a 10-fold dilution series of α-factor (0-100 μM) (GenScript) dissolved in SC+1% DMSO, and stimulated for 5 hrs. (30° C., 250 r.p.m.). Flow cytometric measurement was done to quantify yEGFP levels (B525/45-A) and PRP-regulated morphological changes, denoted shmooing (SSC-A) using a NovoCyte Quanteon flow cytometer (Agilent). Data represents means of median fluorescence intensity (mMFI) for three biological replicates and standard deviations hereof. Two-way ANOVA with Tukey's multiple comparisons test was conducted for all conditions.

Data set [5] concerns CD19. The data set is described as follows: Yeast surface display (YSD) of CD19, antibody staining and flow cytometry. The class given is cell-based, Saccharomyces cerevisiae. As for the experimental part: To investigate the different variants of CD19 modules, yeast cells were grown and, in some cases, stimulated to present CD19 differentially, whereafter they were stained with antibodies and assessed by flow cytometry. Flow cytometric measurement was done using a NovoCyte Quanteon flow cytometer (Agilent) to quantify CD19 by staining with mouse anti-CD19 (FMC63) (Absolute Antibody; Ab00613) and goat anti-mouse-AF647 (polyclonal) (Thermo Fisher; A-21236), detected in R667/30-H, as well as rabbit anti-HA (RM305) (Thermo Fisher; MA5-27915) and goat anti-rabbit-AF488 (polyclonal) (Thermo Fisher; A-11008), detected in B525/45-H (see FIG. 7), and to measure PRP-regulated morphological changes (SSC-H). […] Data represents means of median fluorescence intensity (mMFI) for three biological replicates and standard deviations hereof. Two-way ANOVA with multiple comparisons tests was conducted for all conditions. Histograms are representative replicates. No SSC-normalization was used in the evaluation of the effector module, unlike in Example 1, as it is the absolute response of all effects combined that constitute the total output that CAR T cells interpret and react to.
For conventional YSD using strain EBY100 and pCT-plasmid-based expression (Chao et al. 2006, Isolating and engineering human antibodies using yeast surface display. Nature Protocols, 1(2), 755-768), strains were pre-grown in SC −trp, then transferred to 5 mL SC −trp +2% Gal for induction of YSD or +2% Gluc as a negative control (24 hrs., 30° C., 250 r.p.m.). NALM6 was cultured in RPMI 1640 medium (ATCC modification) (Thermo Fisher) with 10% fetal bovine serum and 1% pen-strep (RPMI+10% FBS) at 37° C. with 5% CO2. For the investigation of PGAL1-titratability of DIX41 with pMAD58 and DIX74, strains were pre-grown in SC −ura and SC, respectively, then transferred to SC −ura and SC, respectively, with varying concentrations of galactose (0.0002%-2% Gal), using raffinose as compensating carbon source, and YSD was induced for 24 hrs. (30° C., 250 r.p.m.). Strains were similarly grown in 2% Gluc as negative controls. For the investigation of the strain library with constitutive and dynamically regulated expression of CD19 (Background strain/No YSD, PPGK1-Empty, PMFA2-CD19, PFUS1-CD19, PFIG.1-CD19, PMFA1-CD19, PHPF1-CD19, PTDH3-CD19, PPGK1-CD19) the strains were pre-grown in SC, whereafter, for each replicate, 50.000 cells were transferred to 300 μL volumes comprising a 10-fold dilution series of α-factor (0-100 μM) (GenScript) dissolved in SC+1% DMSO, and stimulated for 20 hrs. (30° C., 250 r.p.m.).

UniProt P15391, sequence (P15391 20-556): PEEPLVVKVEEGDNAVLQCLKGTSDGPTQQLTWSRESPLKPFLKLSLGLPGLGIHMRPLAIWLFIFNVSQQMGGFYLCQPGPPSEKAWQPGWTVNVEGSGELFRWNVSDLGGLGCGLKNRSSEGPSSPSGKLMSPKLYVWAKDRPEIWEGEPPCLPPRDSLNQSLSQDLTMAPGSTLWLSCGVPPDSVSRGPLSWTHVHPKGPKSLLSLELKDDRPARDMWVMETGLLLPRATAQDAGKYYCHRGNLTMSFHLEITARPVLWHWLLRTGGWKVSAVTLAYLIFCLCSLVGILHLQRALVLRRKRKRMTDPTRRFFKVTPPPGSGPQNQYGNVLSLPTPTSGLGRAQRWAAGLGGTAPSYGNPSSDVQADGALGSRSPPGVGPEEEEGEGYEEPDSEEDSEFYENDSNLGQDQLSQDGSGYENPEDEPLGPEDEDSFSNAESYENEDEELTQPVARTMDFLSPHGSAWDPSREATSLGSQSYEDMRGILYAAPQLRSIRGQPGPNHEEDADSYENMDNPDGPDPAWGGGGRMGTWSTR
UniProt Q00619, sequence (Q00619 other isoform, or with tags, fused parts or gaps): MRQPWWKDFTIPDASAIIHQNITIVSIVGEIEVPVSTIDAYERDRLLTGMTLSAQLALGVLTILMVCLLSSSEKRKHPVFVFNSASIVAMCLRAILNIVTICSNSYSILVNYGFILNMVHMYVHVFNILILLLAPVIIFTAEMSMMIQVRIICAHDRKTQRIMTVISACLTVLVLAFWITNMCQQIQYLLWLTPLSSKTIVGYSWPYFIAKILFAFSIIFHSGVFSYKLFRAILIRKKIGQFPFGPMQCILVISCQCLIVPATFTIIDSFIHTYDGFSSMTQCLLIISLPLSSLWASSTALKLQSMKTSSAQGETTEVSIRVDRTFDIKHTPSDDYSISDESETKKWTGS

P-factor (GenScript) (peptide): the fold change of CD19 expression (PFUS1 cassette, anti-HA staining), strain DIX60, pH=5, 0-10 µM P-factor in data set [1] was found to be 249 fold.

With “anti-CD19 CAR (FMC63-CD8α-4-1BB-CD3ζ) (receptor)”, in data set [2], the maximal specific activation by NALM6 relative to any SCASA yeast aAPC without GPCR stimulation is 2.2 fold and the peaking activation intensity of Jurkat NFAT-Luc cells co-cultured with NALM6, 90% CAR+ was found to be 28.1 fold. In data set [3], this molecule displayed a fold specific activation of CAR+ Jurkat NFAT-Luc cells, yeast PFUS1-CD19 at 0.01 µM α-factor of 3.2 fold; a fold specific activation of CAR+ Jurkat NFAT-Luc cells, yeast PTDH3-CD19 at 0.001 µM α-factor of 27.7 fold; an increase of CAR+ Jurkat NFAT-Luc activation relative to the uninduced condition, yeast PTDH3-CD19 at 0.1 µM α-factor of 10.3 fold; an increase of CAR+ Jurkat NFAT-Luc specific activation relative to the unstimulated condition, yeast PMFA2-CD19 at 0.01 µM α-factor of 15.3 fold. In addition, in data set [3], the increase of CAR+ Jurkat NFAT-Luc specific activation relative to the unstimulated condition, yeast PMFA2-CD19 at 0.1 µM α-factor was 14.5 fold; the increase of CAR+ Jurkat NFAT-Luc specific activation relative to the unstimulated condition, yeast PMFA2-CD19 at 1 µM α-factor was 13.6 fold; the increase of CAR+ Jurkat NFAT-Luc specific activation relative to the unstimulated state, yeast PFUS1-CD19 at 1 µM α-factor is 3.1 fold; the maximal fold specific activation of Jurkat NFAT-Luc cells without GPCR stimulation, yeast PMFA2-CD19, 90% CAR+ was found to be 5.5 fold. In data set [3], this molecule yielded a maximal fold specific activation of Jurkat NFAT-Luc cells without GPCR stimulation, yeast PPGK1-CD19, 100% CAR+ of 11.5 fold; a maximal fold specific activation of Jurkat NFAT-Luc cells without GPCR stimulation, yeast PTDH3-CD19, 70% CAR+ of 12.8 fold; a maximal specific activation of 100% CAR+ Jurkat NFAT-Luc cells (luciferase), yeast PFUS1-CD19 pre-stimulated with 1 µM α-factor of 4.1 fold; a maximal specific activation of 100% CAR+ Jurkat NFAT-Luc cells (luciferase), yeast PMFA2-CD19 pre-stimulated with 0.01 µM α-factor of 22.3 fold. For the same molecule, in data set [3], the maximal specific activation of 100% CAR+ Jurkat NFAT-Luc cells (luciferase), yeast PTDH3-CD19 pre-stimulated with 0.1 µM α-factor came out at 61.9 fold and the maximal specific activation of CAR+ Jurkat NFAT-Luc cells by yeast PTDH3-CD19 relative to NALM6 is 2.2 fold.

B1: PFIG.1: pheromone-responsive Saccharomyces cerevisiae promoter, SEQ ID NO: 9, processing module (yEGFP strain DIX25, CD19 strain DIX56) (nucleic acid, listed as Saccharomyces cerevisiae)
DNA: TTGAATGATCAACCAAACGCCGATATAGTCACTATTGGTGATAAAATTAAAATGCAGCTATTGAGAACCCATCCTAACAACATTAAATTGTCTATTAATGGAATTGGTAAAGATGCCCCAACTTTCCAAGAATCTGCTTTGATTGCCGATAAGTTATTGAGTGTCATGAAGGCCGGCACTTACCCAAAGATTTCCATTTTCTACAATGACCCAGTGTCTTCCCTATCTTTTGAACCATCTGAAAAACCGATCTTTAACGCCAAGACCATTGAACAATCCCCATCATTCGGCAAATTTGAGATCGACACGGACGCAAACGTTCCAAGAGATTTGTTTGAATATACTTTGGCTAACCAAATGTTGACAGCAATGGCTCAAGGTTATGCTGCTGAAATTTCCGCCAGAAGAAACGCTATGGATAACGCTTCCAAGAATGCCGGTGATATGATCAATCGTTACTCTATCTTGTACAACAGAACAAGACAAGCTGTCATTACTAATGAACTGGTTGATATTATTACTGGTGCTTCCTCTTTGGGATGATAAAAAAATCACCCTGCATTGCCTCTTTATTTGACGTTGTTTTTGTAGAACATGAAACGAATTTTGACTTGATGAGACGAAGTATATATCCAAAGAATACCTTAAATAGAAAAGGAAAGATAATAAATACTAAACACTACTATATATTCAGGTAAAATACAAAAATTATAACATTTTTAAAACTTTTTTTTTTTGAAAGTCCTTCTCGCTTTAGGATTTTTTCCCATTAAGATTATGATGGTTTCATGTATGTGTCAGTTAAAAAAAATATGGCTAAGTAGCAATGAAACGAACCAAGAAAATGAAAACAATATATAGTGCTGTTGAAATAACAAAGACATTGGTATATATTTGTAAAATGTCTGTTAAATGTTTTTTATCTCAGGTTCTTGCTTGTCTTTGGTAGAAGAAATTATAGTAAACAAACAAACAAACAAACAAAAAAAAAAAAAAAAAA
As for B1, the “maximum fold change of yEGFP, unnormalized” value in data set [4] (1 μM α-factor (peak)) was determined as 516.8±83.0 fold. Further, in data set [4] (100 μM α-factor), the “fold change of yEGFP, unnormalized” value came to 482.6±98.5 fold. In addition, the “maximum fold change of yEGFP, SSC-normalized” value in data set [4] (100 μM α-factor (peak)) was 128.8±7.2 fold. Moreover, the “fold change of induction of yEGFP, SSC-normalized” value in data set [4] (α-factor 0-100 μM, 5 hrs, excluding PRP-induced expression boost) turned out to be 128.81±7.17 fold. In addition, the “CD19 level at unstimulated conditions” value in data set [5] (no GPCR stimulation) is on record as “extremely low levels of CD19 at the limit of detection”. Also, the “fold upregulation of CD19 display relative to unstimulated condition” value in data set [5] (α-factor 0-100 μM, 20 hrs, promoter driving CD19 in DIX41 background) amounted to 629.6±98.6 fold.
